The values that follow come from the DeepSol protein solubility set.

The series can be described thus: soluble on expression in E. coli; label from the status in PepcDB or PDB records.
As to “MQSAIVLGGGMIGVSAALHLRQRGWTVTLVDRREPGRETSYGNAGMIQAEAVRPYPMPRDLASLLKIATGRTNDVRYSLSSLHLHIEPLLRYWWHSAPKRHREAIDAWARLIAYATAEHDILIREAHADNLIRRAGYRALYRDAAALDLSIKAAEEDQHEFGVNFRVLSGSELAKAEPVLRDDLPGAIHWLDTWTVSDPGALVTAYAELFERLGGRIVLGDAQSLQQTAAGWSVDTDQGRIDAATAVVTLGPWSPDLLYKFGYRIPLVRKRGYHMHYSGGASLDLPLIDKAGGYAMGPMAKGIRITTGAELTSPDALATPVQLASAEASARELIDLGKRVEPDPWFGTRPCTPDMLPVLGPAPLHPGLWMNFGHGHQGFTLGPATGRLLAEMMSGETPAIDPTPYRPERFLEHHHHHH”, the “soluble on expression in E. coli” value was “soluble”.
The same measure for “MQSCLRLAASLLSAALLCLPAPGAAQTASPAKKELLKFNWGAPTADYYALYVAKDQKLFEEVGLEPNFYFFPSGAPLLAGLKSKSLDVITTGLATVFALGQNVPLKLIYWELDHAAAEGLVVDPAAGIKSYKDIAKAKAIGAPSGTCAQVSLVLMAKELNLKYSNLNIINIAPPLYGNAFKSKSIQAAVAWSPYSSILNADQLPVVNWASDYTPDQGVCPGLTGVRTEFMQQHPDIGLKLVQVQAKAMDMIRKDPELGIGVLMKYLSVSREVAKHIYDREFSRIPTYAQQIDPASPYSLAAKDAGLARKLLIASQALAEVGTIPAPLTPQAIAEAIDPSAIQRYMKGERK”: “not soluble”.
Regarding “MQSPEKIDPTWEDSVIDSFISFVRSYDGDFTCIYKLADTVSDEYSLQKIIDFLSSTPQGKQAFQKRPQLGVVDLPKLHQLPTDTLGYVYADQMLQNNLQPLQSHEIDNDYQFFKTHITETHDLWHIVTGADTSILGEIQLEAFYVSQLYASRFWLALLAKNLLKAVIYDIELSTPYMDAISTGWVMAKQAKPLFGLEWNLLWEKPLADVRTSLNIILPVNLEHHHHHH”, the “soluble on expression in E. coli” value is given as “soluble”.
In the case of “MQSSKVVLLEPRTYSEAQGIADHLKGRRAVVINLQRMSTDQAVRIVDFLSGTVYAIGGDIQKIGPKTFMCTPENVDIVGAISELFGEEEETNIKRWLEHHHHHH” it was “not soluble”; in that of “MQTSAQKVIQDLTNRVQAEKEELEQLERERDLWKYNAQMNDKEALRGNERKKNIMKKGGPLCYFCNKNHVPSLCRTYPDGISRQKSLENQGKCIKCLKIGHQNGDNFCEKHHIVCRTCQQSHVKAVCPILYPKKDTPPKILRARRRSLIRAQKKKDFQEPENKHEQLTSTKAPCQENWSDF”, “not soluble”; in that of “MQTSDSIVIIPTYNERENIENIIRAVFGLEKTFHILIIEDGSPDGTAAIVKTLQQEFPDRLFMIERKGKLGLGTAYITGFKWALEHSYEYIFEMDADFSHNPNDLPRLYEACAVQGGDVAIGSRYVSGVNVVNWPMGRVLMSYFASKYVRIVTGLPIHDTTAGFKCYRRQVLETIDLDHIRFKGYAFQIEMKFTAYKCGFKIIEVPVIFINRELGTSKMNSSIFGEAVFGVIKLKVNSWFHTFPQKTKMNLEHHHHHH”, “not soluble”.
In the case of “MQVIKTNETFDSLDKSKLERMLDIKEAHREGHLTLEEAKERMKKEVGSISPEEFAAAEQLFKERDQDECQNEDVRTMLQLFEGLINPIRPDLPFGHPIDAYLRENDKAKELLDQADALLERTFIPNPWIELMETLMGYKLHFARKQNQLYSTLEQKGFDRPSTTMWTYDDHIRDEMNKAMSLLREKDYDSFPAAYKEMAIVLRDLMEKEELILYPTSLKLISDKEFEEMKHGDREIGFFLIDMPELDAPAKQSKEAHGQSFMAELGALLAKHGMGTGGQDDKAILDVAEGKLTLEQINLLFRHLPVDISFVDENELVCFYTDTKHRVFPRSKGVIGREVRNCHPPKSVHIVEEIIDKFRRGEQDRAEFWINKPGVFIYIVYVAIRDADGRFRGVMEMMQDCTRIRSLEGSRTLLTWDEEQSPAQGSKESESDTAGEDGIRPDTKLKSLLQRYPQLMDDLPTISSKFTLLRSPMAKVILPVATIKMMSERADIPSDMLIGKLESLIASYNKPDRSEEK” it was “not soluble”; in that of “MQWVKQLNVVFCTMLFSFSSYANLSDFKVATWNLQGSSAVNESKWNINVRQLLSGEQGADILMVQEAGSLPSSAVRTSRVIQHGGTPIEEYTWNLGTRSRPNMVYIYYSRLDVGANRVNLAIVSRRQADEAFIVHSDSSVLQSRPAVGIRIGTDVFFTVHALATGGSDAVSLIRNIFTTFTSSPSSPERRGYSWMVVGDFNRAPVNLEAALRQEPAVSENTIIIAPTEPTHRSGNILDYAILHDAHLPRREQARERIGASLMLNQLRSQITSDHFPVSFVHDR”, “soluble”.
Regarding “MQYINESATVSASNNVEKLRKQGLKIYNFGIGEPDFTTPEGIIDYAFEMAKQGKTHYTPSAGIMELREKIASKLKTRNRIDANAENVLVTPTKFGINLAMMVILNPGDEVIIPDPYYVSYPDIVKLAGGKPVPVRTTDDYDIDLDEMRKFVTPRTRAIILNNPNNPTGKVLSEKEIRDLVDFALENDIYIVSDEIYEDLIYEGSLYSPASMGKEAFEHTITLNGFSKGYAMTGWRIGYFVATEEIVEAANIIQQQTITCASSISQYAALRALDDNESPARMRSEFRKRRDLAYGILSESTDMKVHKPEGAFYMFPGYSKDIPSEKIAEMLLNQEHVVVTPGSAFGDRGRHHFRISFATSEDIIKEGLERLVKFMHTL”, the “soluble on expression in E. coli” value is “soluble”.
Take “MQYTLKQISEHLNAKVINEPSGEVIITGLTYAEQAKENDLTLIDKQEHIKLWQNSKATAAIVSKKISKELAQVNDKPLIVVNNADLAMAKILELFSVPYPEQNGIHEKAIIDPTAKIGKNVSIGPSAYIGKNVEIGDNTIIYANVCIYNDAKVGTNCIIWPSVIIRDRTIIGHFCRLCSNCSIGSDGFGYRPSEDGRTIVRIPHIGNVVIGSFVDIGSNTCINNAKYGSTIIGDYTKIDNLVQIGHNVIIGKGCMICGQAGISGSVTIGDGVIIAGNAGIKDHTNIGSDARIGGKAGVMWDVPAGESHMGYPAYKDSELAKQWIAIRKLPETMKKLKAIAKSLNIDL”: the “soluble on expression in E. coli” value is reported as “not soluble”.
For “MRARSDAGGQSVKSRTSNRSRSSRRSRVRSSISALVDNPQARPRELPVLCGWPVVRVEPVCEFVPEPVCGQAEVLGEPAAAHRVTSARRSPSTTVCSRSQKASAVVISSVSSVARVRRASVSSVDATTA”, the “soluble on expression in E. coli” value is “not soluble”.
On to “MRATAIKIFSLSSALALLLHGCLSINLKQMLPEIRTYDLNASSFEITQCAKPLTEVRLISILSADLFNTKEIVFKAKDGQITHGKHQKWIDLPRNMLKTMFMQEAQKACLGVALPPYGAGAPTYAVRFTILSFSLLEKENSTYRAEFALGYDISVKGDSHSGVIIKHENISSLENKTTKTSKNGNQDFQESAIQSLQHVSVQAIQEAVSLIKKAIEAQSVSPLKK”, for which the “soluble on expression in E. coli” value was “not soluble”.
The same measure for “MRCPGCGAAIQFDDPKKPGYIPREVFEKRLEEGKEILCQRCFRMKHYGKLEPVEFDWDFKNQLKSYLGGFDVVVWVIDIFDFEGTYREDIAEILKGKRVIYVINKIDLLPRAVTVKEIKEWVKKRIKTKNTDDIRIVSAEKNFGLTSLVKYLSRLTDKALVVGVTNVGKSSLLNKICTHENTISPFPGTTLGILKRKVKEANLYLYDTPGIMTSDRILDLLDPECQKRVLPREELSRKTFKPDNGRTIFMGGLCRFDIHFETEKNPIFLLFSSKEVTFHETRRERADELMRNRLGDLLIPPCSKTKFENFKWKRETFTLKEGEELAVAGLGWMSVRRGPFTVEVTVPDSVKLVVREALVNPKRLEHHHHHH”: “soluble”; for “MRCYAKIHSYQLLFVADVDYDCHHKDKFFRRHCVVAKILPRFDAVLFLDADTGVVNPSRKIEEFLKPGIDITFVNRFCNWEIASGFYLARNTPFAINLLNNFADYESKLPNSFHGTDNGAIHIFLAEKIFPQASIEIGICRRAYEKSTSVEDLILYEACIKALFGVVTDFGKIQILRKGTGWARDGWLTSMVWHPETDFMLHGWKTNALIPTPTDPLVAIEMSMSQWFNPLNGSIDLSKCNSHNSTWNYDARLLGNNEEIQKSLHRIQKENSILQVKAYSDFSKFISL”: “not soluble”; for “MRDLKGIFSALLVSFNEDGTINEKGLRQIIRHNIDKMKVDGLYVGGSTGENFMLSTEEKKEIFRIAKDEAKDQIALIAQVGSVNLKEAVELGKYATELGYDCLSAVTPFYYKFSFPEIKHYYDTIIAETGSNMIVYSIPFLTGVNMGIEQFGELYKNPKVLGVKFTAGDFYLLERLKKAYPNHLIWAGFDEMMLPAASLGVDGAIGSTFNVNGVRARQIFELTKAGKLKEALEIQHVTNDLIEGILANGLYLTIKELLKLEGVDAGYCREPMTSKATAEQVAKAKDLKAKFLS”: “soluble”.
